Earlier results in patent US9932367B2, “Modification of polypeptides” (BicycleRD Limited, priority 2013, dated 2018).
Starred links: 1 amine or outer side, 2 acyl side, 3 side chain; linkers in the order of their positions; H or OH if unused. Positions of bridges follow the written chain, without caps; N, C: chain ends. TBMB = c1c(C[*:1])cc(C[*:3])cc1C[*:2]

What was measured:
factor XIa (hfXIa) = factor XIa (hfXIa) (Homo sapiens, UniProt P03951); conditions: highest concentration tested (10 μM)
Chain of factor XIa (hfXIa) (P03951 388-625 limits assumed): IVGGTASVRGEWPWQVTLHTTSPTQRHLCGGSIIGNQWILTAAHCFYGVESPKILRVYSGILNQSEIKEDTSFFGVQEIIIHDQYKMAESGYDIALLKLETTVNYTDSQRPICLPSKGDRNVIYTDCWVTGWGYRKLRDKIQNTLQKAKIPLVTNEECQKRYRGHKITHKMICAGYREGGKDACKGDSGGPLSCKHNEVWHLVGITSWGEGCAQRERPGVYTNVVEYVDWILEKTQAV
Chain of factor XIa (hfXIa) (P03951 19-387 partner limits assumed): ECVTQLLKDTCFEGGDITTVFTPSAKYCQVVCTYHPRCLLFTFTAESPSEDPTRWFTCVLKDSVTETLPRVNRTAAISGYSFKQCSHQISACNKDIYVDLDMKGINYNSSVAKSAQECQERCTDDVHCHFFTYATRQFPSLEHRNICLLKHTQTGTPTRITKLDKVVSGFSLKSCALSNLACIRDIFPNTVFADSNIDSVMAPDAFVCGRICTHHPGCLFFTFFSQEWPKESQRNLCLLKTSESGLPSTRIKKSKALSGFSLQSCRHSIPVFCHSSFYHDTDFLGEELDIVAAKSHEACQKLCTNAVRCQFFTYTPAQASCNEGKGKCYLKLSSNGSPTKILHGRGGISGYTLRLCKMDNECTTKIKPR

thrombin = thrombin (Homo sapiens, UniProt P00734); conditions: highest concentration tested (10 μM)
rat PK = rat PK (Rattus norvegicus, UniProt P14272); conditions: highest concentration tested (10 μM)
Chain of rat PK (P14272 20-638): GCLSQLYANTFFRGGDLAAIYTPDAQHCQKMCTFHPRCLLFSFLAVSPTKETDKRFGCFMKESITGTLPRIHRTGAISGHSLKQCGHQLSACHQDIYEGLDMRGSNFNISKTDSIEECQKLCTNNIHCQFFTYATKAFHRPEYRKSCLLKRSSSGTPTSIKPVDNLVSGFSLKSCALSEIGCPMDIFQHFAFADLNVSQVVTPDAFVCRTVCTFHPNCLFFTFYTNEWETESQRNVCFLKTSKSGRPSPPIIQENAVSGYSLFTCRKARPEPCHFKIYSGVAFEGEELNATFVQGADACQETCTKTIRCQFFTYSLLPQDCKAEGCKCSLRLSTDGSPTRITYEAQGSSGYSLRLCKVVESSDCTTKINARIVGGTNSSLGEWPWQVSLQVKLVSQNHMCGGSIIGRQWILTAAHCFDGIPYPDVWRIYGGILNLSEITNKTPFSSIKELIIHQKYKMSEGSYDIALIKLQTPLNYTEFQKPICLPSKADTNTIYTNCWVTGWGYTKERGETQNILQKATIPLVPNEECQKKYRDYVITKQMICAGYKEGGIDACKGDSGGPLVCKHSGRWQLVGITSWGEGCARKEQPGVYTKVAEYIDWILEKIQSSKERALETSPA

human PK (hPK) = human PK (hPK) (Homo sapiens, UniProt P03952)
Chain of human PK (hPK) (P03952 391-638 limits assumed): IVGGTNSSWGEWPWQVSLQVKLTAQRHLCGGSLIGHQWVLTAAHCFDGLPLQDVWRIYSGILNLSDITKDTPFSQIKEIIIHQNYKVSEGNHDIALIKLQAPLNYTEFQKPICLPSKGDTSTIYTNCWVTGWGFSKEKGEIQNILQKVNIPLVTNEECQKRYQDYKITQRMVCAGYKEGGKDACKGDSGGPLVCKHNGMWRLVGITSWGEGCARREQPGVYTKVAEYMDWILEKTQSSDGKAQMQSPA
Chain of human PK (hPK) (P03952 20-390 partner limits assumed): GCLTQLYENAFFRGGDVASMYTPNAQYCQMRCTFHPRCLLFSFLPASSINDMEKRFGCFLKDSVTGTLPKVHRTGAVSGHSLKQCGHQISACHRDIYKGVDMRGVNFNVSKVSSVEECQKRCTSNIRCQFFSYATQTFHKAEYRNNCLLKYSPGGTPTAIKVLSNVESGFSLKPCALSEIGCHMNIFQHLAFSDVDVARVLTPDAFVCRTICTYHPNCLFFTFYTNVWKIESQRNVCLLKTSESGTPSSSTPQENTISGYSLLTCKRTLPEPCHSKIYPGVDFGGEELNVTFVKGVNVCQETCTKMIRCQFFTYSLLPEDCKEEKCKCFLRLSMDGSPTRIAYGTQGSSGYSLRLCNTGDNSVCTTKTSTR

three cysteines containing peptide (H-ACSDRFRNCPADEALCG-NH2) (SEQ ID NO: 18) coupled with TBMB; inhibitor of human plasma kallikrein (linker 2-9-16 via TBMB) [PK15]
inhibition of human factor XIa (factor XIa (hfXIa)): did not inhibit
inhibition of thrombin (thrombin): did not inhibit
inhibition of rat PK (rat PK): did not inhibit
Ki (human PK (hPK)): 3 nM
